T1: Aacec B (cecropin B) peptide (Aedes aegypti)
T1 sequence: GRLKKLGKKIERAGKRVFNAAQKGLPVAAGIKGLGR

T2: Aacec B (cecropin B) peptide (Aedes aegypti)
T2 chain: T1 sequence

B1: nucleotide replacement 3 ((A/C)A to TA) (dsDNA)
DNA 1: TCGAAATGTTGGTATCCCGG
DNA 2: CCGGGATACCAACATTTCGA
B2: nucleotide replacement 1 (TT to CC) (dsDNA)
DNA 1: TCGAAATGCCGGAATCCCGG
DNA 2: CCGGGATTCCGGCATTTCGA
B3: nucleotide replacement 4 ((A/C)A to CG) (dsDNA)
DNA 1: TCGAAATGTTGGCGTCCCGG
DNA 2: CCGGGACGCCAACATTTCGA
B4: nucleotide replacement 2 (GG to TA) (dsDNA)
DNA 1: TCGAAATGTTTAAATCCCGG
DNA 2: CCGGGATTTAAACATTTCGA
B5: AaPPO 3-5' end-1-2 oligo (TTGGAA) (dsDNA)
DNA 1: GTTCGAAATGTTGGAATCCCGGATC
DNA 2: GATCCGGGATTCCAACATTTCGAAC
B6: AaPPO 3-Cu B2 oligo (TTGGAA) (dsDNA)
DNA 1: GAGTATCGGTACTTGGAAGATTTTG
DNA 2: CAAAATCTTCCAAGTACCGATACTC
B7: AaPPO 3-Cu B3 oligo (TTGGCA) (dsDNA)
DNA 1: GTTCTATCGTTGGCACGGAATGATC
DNA 2: GATCATTCCGTGCCAACGATAGAAC
B8: AaPPO 3-Cu A1 oligo (TTGGCA) (dsDNA)
DNA 1: CATGCACCATTGGCACTGGCATTTA
DNA 2: TAAATGCCAGTGCCAATGGTGCATG

What follows are molecules tested on T1, Aacec B (cecropin B) peptide (Aedes aegypti) (assay: pull-down). Settings: not given.

With “TGACGTGACAACGGCAATGCGTGATCCTGTGTTCTATCGTTGGCACGGAATGATCGATGGCTTGT (double strand) [Cu B3 fragment]” as the molecule, how does the binding read?
Its binding is “binds”.

With “CTCCGCAAAGGCAAGATCCGGGATTCCAACATTTCGAACCGGAATTTCGACCTCCGCGCCACTCGTGAACCTGCTCTGCAAATCGCCAGCTAACGGACGATAACGATCACTCAAATACTCGTCCGGAATTATGAGCGATGTTTTACCATCGTCCTTTGGCATAAACGATGGCTCCAGAGGGCGTTGCAGAAGCGCTTGGAAAGATTTACTCTCAGCCATCTTTTAACAACAAAACAATGCGTTTCCGTACGATAGCTATCGATTGGAGATTGG (double strand) [5' end-1 fragment]” as the molecule, how does the binding read?
Its binding is “binds”.

With “ATGGCATACTTCCGTGAGGACATCGGAGTCAACATGCACCATTGGCACTGGCATTTAGT (double strand) [Cu A1 fragment]” as the molecule, how does the binding read?
The binding was “binds”.

Which binding does the source give for “GCCTACATTCACGATCCTGAGTATCGGTACTTGGAAGATTTTGGAGTAATGGG (double strand) [Cu B2 fragment]” here?
Its binding is “binds”.

With “ATAACGAGAAATGATTTGGCTGTGCATATAGTAGAAAAGTTCACCACGGCGATCTTTCTTAGCAATTTCCGGTGGCGCCCCAGCAGGATACACTAAATGCCAGTGCCAATGGTGCATGTTGACTCCGATGTCCTCACGGAAGTATGCCAT (double strand) [Cu A fragment]” as the molecule, how does the binding read?
Its binding is “binds”.

For “GTTAGCTGGCGATTTGCAGAGCAGGTTCACGAGTGGCGCGGAGGTCGAAATTCCGGTTCGAAATGTTGGAATCCCGGATCTTGCCTTTGCGGAG (double strand) [5' end-1-2 fragment]”, which binding is on record?
The binding was “binds”.

“AACAAGCCATCGATCATTCCGTGCCAACGATAGAACACAGGATCACGCATTGCCGTTGTCACGTCACCCATTACTCCAAAATCTTCCAAGTACCGATACTCAGGATCGTGAATGTAGGCCAAAAAATCATGTCCAAAGTTATGCAAACTCCCATACAACCTCCTGTTGACGGAAAGCGTGGAAGCTTCAACCAAGTCACCTAAAAT (double strand) [Cu B fragment]” was tested. Which binding did it give?
The binding was “binds”.

Target: T2, Aacec B (cecropin B) peptide
Assay: EMSA; EMSA: 6% native polyacrylamide gel, LightShift chemiluminescent kit; buffer, salt, pH and temperature not given in the material (cited to earlier work)
Settings: tags: none stated for EMSA; conjugated to beads for pull-down; label: biotin; blunt

Does B1 bind?
Result: no binding

Does B2 bind?
Result: no binding

Does B3 bind?
Result: no binding

Does B4 bind?
Result: no binding

Target: T2, Aacec B (cecropin B) peptide
Assay: EMSA; 1 ng peptide; EMSA: 6% native polyacrylamide gel, LightShift chemiluminescent kit; buffer, salt, pH and temperature not given in the material (cited to earlier work)
Settings: tags: none stated for EMSA; conjugated to beads for pull-down; label: biotin end label; blunt

Does B5 bind?
Result: binds

Does B6 bind?
Result: binds

Does B7 bind?
Result: binds

Does B8 bind?
Result: binds
